Source: the DeepSol protein solubility set

Assay: soluble on expression in E. coli; label from the status in PepcDB or PDB records

Sequence	soluble on expression in E. coli
MGSDKIHHHHHHMVGIILASHGEFAEGILQSGAMIFGEQENVKAVTLMPSEGPDDVKAKMQEAIASFDNQDEVLFLVDLWGGTPFNQANSLLEDHKDKWAIVAGMNLPMVIEAYASRFSMESAQEIATHILETAKDGVKVKPEELQPAEAPKAAATEDAQPKGSLPPGTVVGDGKIKFVLARIDSRLLHGQVATAWTKATQPNRIIVVSDAVAKDDLRKKLIEQAAPPGVKANVIPISKMIEVAKDPRFGNTKALLLFENPEDVLKVVEGGVEIPEVNVGSMAHSVGKVVVSKVLSMGQEDVDTFDELKAKGIKFDVRKVPNDSKANMDEILKKAKNELANA	not soluble
MRVLYERCCGLDVHKKSITACVLTPEGKEIRTFGTMTDDLEELVEWLKQKQVTHVAMESTGVYWKPIYNLLEAEPIDVLVVNAQHIKAVPGRKTDVKDAEWIADLLRHGLLRGSYIPDRAQRELRELVRYRRSLIEERARELNRIQKVLEGANIKLASVVSDINGVSAQQILRALIEGTDDPAVLAQLAKGRLKQKIGELRRALKGIMGPHQRMMLAEQCRHIEYLDEAIARLSREIEERTRPFHEVLELMETIPGVGRQSAEQIIAEIGTDMSRFPTAAHVASWAGMAPGNHESAGKRLSGRTRKGNKKLRACLVECARAAARTKNTYLSAKYHRIAKRRGANRASVAVGRTILEIIYSVLTRKAPYRELGADYWDQQREAAIVRQTVKRLEGLGYEVKLEKTSA	not soluble
MPSVFEAKGLPSLGPPVSNWGTNQPGTGVARNTRREKLGLWSAVALQQHFTATGGRGGLPLPLSSSALPSQEDRGTAAALGDNAGFSSGAVSSDLRSHLGPAPSLAGRLHKPTLAQRMGLVPGPTPPPSADDWRVITHRALQREHRHARDAGSPGANPSICPICQMSYSTNCDEGQVILSCSHVFHARCFRSFERYVRAQQRADALRIGEVSAPLACPVCRTQSYYKRIFYEGKAVAQRAAIVKVQAAVRGLLARRAYIKIKLQNNPEFRTRYVQERLARLSAAWQTFCAEQEQRRAGLQTALTVQQEMARAAFLSEEAWAEIWRKAVHGPSTSSEPGSSAAPSTAGASVQCPICLELIHCSQCPGTGAAASHAGGVRRLTGKDAVAAMWAAYEARKVAKRLPSVEPKAARASAGALVRSAVKGAAQRKTGNSLTPMPGAVASVRDGKVASSRAPEHRAGRQKGFAQPTAAAPWPEHANAFAALSSAPGVDAVGAHEAAVVLPQSGILLSCGHCFHAACIDCYERFHERRCLDMVEQDGGAVVAFPSRCPVCRSGYAKHPM	not soluble
MSLAERKPIESWLTDMDGVLIHEGVPIPGADAFIKKLRESGKPFLVLTNNSIYTPRDLHARLRRMGLDVPVENIWTSALATAQFLGDQRPDGTAYVIGEAGLTTALHDIGYVLTDHEPDYVVLGETRTYSFEAMTQAVRLINKGARFICTNPDETGPSAEGPLPATGAVAALITKATGKKPYFAGKPNPLMMRTGLNTLGAHSETSAMIGDRMDTDVLAGMEAGMQTFLVLTGLTGPDQVENYPYRPSKVVDSIADLVDWIEGHHHHHH	soluble
MGSDKIHHHHHHMDTLIRRYKRLLTATSTTYIRSLMDTINWDNRLIAIRGARGVGKTTLMLQYLKLHYANDSQSALYTSLDSLYFTQHTLSELAEQFYLKGGKCLFLDEVHKYPSWSKEIKNIYDEFPELKIVFTGSSLLQLLNAEADLSRRCISYNMQGLSYREYLKLFHQIHIRPYTLEEILESSDGICNEVNSQCRPLAHFEDYLKHGYYPFYLEGNAEYYTRIENITNLILEIELPQQCGVDISNVRKLKSLLGILSSEVPFMVDITKLSALAELSRTTILAYLQYLDRAKLIHLLYSDNDSIKKLQKPDKIYMENTNLLYALTFKDVNKGTLREVFMVNQLSYLHRVEYCTRSADYTIDSKYTIEVGGKSKDGKQIAGSKKAFIAADDIEYSAGNKIPLWAFGFLY	not soluble
MASQQQTVREWSGINTFAPATQTKLLELLGNLKQEDVNSLTILVMGKGGVGKSSTVNSIIGERVVSISPFQSEGPRPVMVSRSRAGFTLNIIDTPGLIEGGYINDMALNIIKSFLLDKTIDVLLYVDRLDAYRVDNLDKLVAKAITDSFGKGIWNKAIVALTHAQFSPPDGLPYDEFFSKRSEALLQVVRSGASLKKDAQASDIPVVLIENSGRCNKNDSDEKVLPNGIAWIPHLVQTITEVALNKSESIFVDKNLIDKLAAADHHHHHH	soluble
MGSDKIHHHHHHAEEQVYSESEVSTVLSKLEKEAISEAAAEQYTVVDRKEDAWGMKHLKLEKQTEGVTVDSDNVIIHLDRNGAVTSVTGNPVDQVVKIQSVDAIGEEGVKKIIASDNPETKDLVFLAIDKRVNNEGQLFYKVRVTSSPTGDPVSLVYKVNATDGTIMEKQDLTEHVGSEVTLKNSFQVAFNVPVEKSNTGIALHGTDNTGVYHAVVDGKNNYSIIQAPSLVALNQNAVDAYTHGKFVKTYYEDHFQRHSIDDRGMPILSVVDEQHPDAYDNAFWDGKAMRYGETSTPTGKTYASSLDVVGHEMTHGVTEHTAGLEYLGQSGALNESYSDLMGYIISGASNPEIGADTQSVDRKTGIRNLQTPSKHGQPETMAQYDDRARYKGTPYYDQGGVHYNSGIINRIGYTIIQNLGIEKAQTIFYSSLVNYLTPKAQFSDARDAMLAAAKVQYGDEAASVVSAAFNSAGIGAKEDIQVNQPSESVLVNE	not soluble
MADVTGIALGMIETRGLVPAIEAADAMTKAAEVRLVGRQFVGGGYVTVLVRGETGAVNAAVRAGADACERVGDGLVAAHIIARVHSEVENILPKAPQA	soluble
VTQQSRQLLDVTRIYYEPAAAELPRGRQVLERWPDATLVPVESHWRIPELHGDETNVDRWVRIKREALVLGIKKSLTAKPNGRSADFIAPSTANGCAMACAYCYVPRRKGYSNPITVFTNIEQITGYLERHVHRQGVKPEPNQCDPASWVYDLGENSDCSVDAEVSDNVDDLIALFRGLPTAKASFATKHVNRRLLTLDPQGRTRVRFSLMPARVAKLLDVRTSPVPERLGALDDFVAAGYEVHVNLSPVVVHEDWLPVWAALLDELGDATNDATKAQLQAEVIFLTHEENLHRVNLGWHPKAEDLLWRPAMQETKRSQNGGVNVRYRTGDKGRYVQQLLALIEERAPYLRVRYAF	soluble
MSLLTVVHDQDSSNEDACGSRSLLDEIVRDGARQMLAAALAAEVAAYIDAHAGEVDENGHRLVVRNGYHREREVLTAAGAVTVIAPRVNDKRIDADTAERRRFSSAILPAWARKSPQMTEVLPLLYLHGLSTSDFGPALEQFLGSGAGLSATTITRLTAQWQDEAKAFGERDLSGTDYVYLWVDGIHLKVRLEQEKLCLLVMIGVRSDGRKELVGLADGYRESTESWADLLRSCRRRGMTAPVLAVGDGALGFWKAMREVFPATREQRCWFHKQANVLSCLPKSAHPGALAAMREIYNAEDIDHAQVAIKAFEVDYGAKYPKAVAKIVDDADVLLEFYRYPAEHWIHLRTTNPIESTFATVRLRTKVTKGPGSRAAGIAMAYKLIDAAQARWRAVNAPHLVALVRAGAVFHKGKLLEREGHHHHHH	not soluble
REIADNTYIVLGTMTLNDFNEYFETDLESDNVDTIAGFYLTGVGTIPSQEEKEHFEVESNGKHLELINDKVKDGRVTKLKILVSEVEEKEDEKD	not soluble
MKKQKLSGAEGFESYYLSIFGERWQSLKAALLEERKPEAYSENLIQNYYLDYASIQAARAMPVLEEGSCLDMCAAPGGKTLVLLSRIKENAEIQANELSADRRNRLIRVLDEHLSEETRKRIRVSSYDASRMPRYGQELYDRILLDAPCSSERHVLQNEKYLKQWTEARIKNLSQRQWALLSAAFLLLKPKGFLVYSTCALADEENDFLIEKLIKKYKEKVRLEEKLDGLGPISPEKTRYGFRFLPDKAEGAGPIYFSLIQKN	not soluble
MGSDKIHHHHHHMAVQDLLSQDEIDALLHGVDDGMVQTDIASEPGSVKSYDLTSQDRIVRGRMPTLEMINERFARYTRISMFNLLRRSADVAVGGVQVMKFGEYVHSLYVPTSLNLAKIKPLRGTALFILDAKLVFKLVDNFFGGDGRHAKIEGREFTPTELRVVRMVLDQAFIDLKEAWQAIMEVNFEYINSEVNPAMANIVGPSEAVVISTFHIELDGGGGDLHVTMPYSMIEPIREMLDAGFQSDLDDQDERWVNALKEDVLDVNVPLTTTIAQRQLPLRDILHMRPGDVIPVELSDTLVLRANGVPSFKVKLGSHKGKMALQVIEPIARR	not soluble
MAHHHHHHMKNTVVRIKAELENVKRLFCDDEYLWIFNIRDSTSSLTRDNIQFRKTDILEIPNSRGTANFMIKWTEYPKYSTINFVNTKNSCSYEEVNNNEWRDFASFECRGIELIDFFPSNNFIVEDTKGKLYYDVNLSDQNWCDYNEEHEMCVGIYNLEYEVN	soluble
MGSDKIHHHHHHMQIEMTGITKAFGPVPVLKGVDFTLATGEIHALMGENGAGKSTLMKILTGVHKADQGTILVDGVEQQYKNPKLAEEAGIAFIHQELNILPDLTVTENLFLGRELKSRFGVLKQAEMKRLAERELAELNVFMDVNQLARTLSVGQQQMIEIAKALMTDAKVIIMDEPTAALTEREIRALFSVATALREQGVSIVYISHRMEEIFELCDRITVLRDGVSVSTHRIADTSFEQIVREMVGREMGERYPERQVTLGQTVLEVTGATGKRFEDVSFSVRAGEIVGFSGLMGAGRTEVMRGLFGIDRMKAGTISLNGKTIKIKSPHDAIKQGLGFLTEDRKGEGLFLDFSLRENISLPTIRSLSKSGVISDQSERQFAEGYLKSLSVRHSSMDQPAKSLSGGNQQKVVLAKWLGTKPDVLILDEPTRGVDVGAKKEIYMIMDELAATGVAIIMISSDLPEILGMSDRVYVMREGQMSGMLNQEEATQESIMTLATGGQ	not soluble
MDNPVKLDTPVSGWRAGDGSAANYRQVVNYPASSVNVAADQATTARIRGAIESQPKDRPATLVVNGVSMPLKVDADGSFDRPFAFPSGSNSVEVRNAAGQSRRVQFYHGGGGGEVPAKLRVLLSWDSDNTDLDLHLVTPDGDHVWYGNRSLANGATLDVDVTTGYGPEIIATPTPQKGPYLVYVNYFGGGYGSSEDGAEQAAQDLTTARITLVTEEGTPNEKQETFLVPMRKPGELTLVKRFSYPLEHHHHHH	soluble
MTKINVPLETSNKTTSDLEKKKPFSVLLMGSDARPGETNGRADTIILATANKQQNAVEMVSIPRDTKVDYGNGDIGKINASYSNGGPSGTVSAVEKLMPGVPVDYFISINMEGFKDLVDAVGGITVYNDIDLTEVNSKFVKGNITLNGTDALQYVRIRHEDPRGDFGRQDRQRDVIIGIANKVISSSGVSNFESIMKAVGDNFQTNMTLTDITSMATNYSSVLKNVDSQELKGEGEMIYSESYGFDLYYFAPDETDLERVINMFKKSLDITELEHHHHHH	soluble
MDPLEALQKHVQRPEEFPLREVTVSGISYVAFGDYAYKKDTETSLQIYGKSDEFYSLESLVVFLKYSHENHGVYVKEAAAAGVRAVTRIDRKNVTEYLQGDRTDFPALMNQVNPLSLRQLLHSSEPEAKKPRLDGEAAGEPMDTSTSAEICSKIPIFLKINSIFFPDEPQESAVSAAKKEVEIRALNDNLTKDRIAEMRRKRQSHREKGIVTIETTFPQKPDFLIKKFQFFSESLSTLTSASLPKTRIHKTRENVMLGARDLSNVLDIITSAQRQWDLNEKKEKVAAVHATNLSKDQSGAAGGQQQRSGYSRYAQEAFAHEKTKEIQTEGSFIGSNFSSIKQGHHAVQKAPDAPPGRPPLAKPIQLLTSSTATSSGSSAAQNGSKRTSRSPIIIVPSAMNTMINLYNVRDILQNFSYVPVDQRRKETNKKPVDLAIQRQKNGVTYNIRVIDNAEKLANDDWDRVIAVFVMGVAWQFKGWKWNGNPTDIFTHIPAFHFHVDQDKPVAQVMQWNVHKIPVSATKRHMDKARFSQVWETIENFVRKNKPHLTARLGL	not soluble
